This experiment addresses murine inducible nitric oxide synthase (murine) (UniProt P29477).

A value given as a limit tells only on which side of the number the result lay.

With “COX2-myc fragment 484-604 (from UniProt P35354)”, the PGE2 formation reduction is more than 50%.

The values above are taken from patent US20060246076A1.
